Experiments:
human PAI-1 [1] = molecular target: T1, human PAI-1 (human, UniProt P05121 24-402); assay: cell-based or functional assay
[2] = molecular target: T2, cyno PAI-1 captured on immobilized human vitronectin (cynomolgus monkey; human, UniProt P04004 20-478, limits assumed); assay: Biacore, cPAI-1 on vitronectin chip, two state reaction model (ka1)
T2 construct: non-covalent complex formed on the chip; also called cPAI-1/Vn

[3] = molecular target: T3, glycosylated human PAI-1 (active form) (human, UniProt P05121 24-402, glycosylated); assay: cell-based or functional assay
cynomolgus PAI-1 [4] = molecular target: T4, cynomolgus PAI-1 (cynomolgus monkey (Macaca fascicularis), UniProt P05121 24-402 (human entry)); assay: Biacore, mAb on anti-human IgG Fc chip / cyno PAI-1, 1:1 model
T4 construct: produced in-house in E. coli (non-glycosylated); active cyno PAI-1 in the assays; also called cyno PAI-1; cPAI-1

[5] = molecular target: T5, human PAI-1 captured on immobilized human vitronectin (human, UniProt P04004 20-478); assay: Biacore, hPAI-1 on vitronectin chip, 1:1 model
T5 construct: non-covalent complex formed on the chip or plate; also called PAI-1/Vn complex; Vn captured hPAI-1

human PAI-1 [6] = molecular target: T1, human PAI-1; assay: cell-based or functional assay; remark: listed apart in the source
cynomolgus PAI-1 [7] = molecular target: T4, cynomolgus PAI-1; assay: cell-based or functional assay
[8] = molecular target: T3, glycosylated human PAI-1 (active form); assay: cell-based or functional assay; remark: listed apart in the source
[9] = molecular target: T2, cyno PAI-1 captured on immobilized …; assay: Biacore, cPAI-1 on vitronectin chip, two state reaction model
[10] = molecular target: T3, glycosylated human PAI-1 (active form); assay: cell-based or functional assay; remark: listed apart in the source
human PAI-1 [11] = molecular target: T1, human PAI-1; assay: Biacore, mAb on anti-human IgG Fc chip, 1:1 model
[12] = molecular target: T2, cyno PAI-1 captured on immobilized …; assay: Biacore, cPAI-1 on vitronectin chip, two state reaction model (kd1)

T1 sequence (P05121 24-402 limits assumed): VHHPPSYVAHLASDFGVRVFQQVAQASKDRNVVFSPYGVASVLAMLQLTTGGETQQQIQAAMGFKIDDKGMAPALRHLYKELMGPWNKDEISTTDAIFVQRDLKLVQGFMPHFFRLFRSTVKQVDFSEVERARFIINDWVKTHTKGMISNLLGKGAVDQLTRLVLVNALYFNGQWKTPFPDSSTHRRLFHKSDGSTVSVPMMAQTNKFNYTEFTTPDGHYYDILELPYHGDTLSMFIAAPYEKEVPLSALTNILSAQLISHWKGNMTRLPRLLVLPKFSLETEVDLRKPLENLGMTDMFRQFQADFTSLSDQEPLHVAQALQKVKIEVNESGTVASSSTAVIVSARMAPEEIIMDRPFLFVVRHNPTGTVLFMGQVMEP
T5 sequence (chain, as listed by the source limits assumed, chain 1 of 2): as the sequence (P05121 24-402 limits assumed) above
T5 sequence (P04004 20-478 limits assumed, chain 2 of 2): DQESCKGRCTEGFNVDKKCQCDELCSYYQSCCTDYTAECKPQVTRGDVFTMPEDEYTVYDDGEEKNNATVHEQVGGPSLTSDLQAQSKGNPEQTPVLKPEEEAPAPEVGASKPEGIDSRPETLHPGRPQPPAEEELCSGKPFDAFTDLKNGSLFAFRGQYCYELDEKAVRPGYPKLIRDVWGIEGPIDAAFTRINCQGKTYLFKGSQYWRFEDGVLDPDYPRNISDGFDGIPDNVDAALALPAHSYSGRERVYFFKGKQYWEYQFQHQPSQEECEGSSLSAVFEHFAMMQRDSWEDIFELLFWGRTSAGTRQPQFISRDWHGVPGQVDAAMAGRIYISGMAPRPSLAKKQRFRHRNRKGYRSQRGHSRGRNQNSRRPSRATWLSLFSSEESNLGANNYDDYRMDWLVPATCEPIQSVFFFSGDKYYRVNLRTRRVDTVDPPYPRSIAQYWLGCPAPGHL
T3 sequence (P05121 24-402 limits assumed): as the sequence (P05121 24-402 limits assumed) above
T4 sequence (P05121 other isoform, or with tags, fused parts or gaps limits assumed): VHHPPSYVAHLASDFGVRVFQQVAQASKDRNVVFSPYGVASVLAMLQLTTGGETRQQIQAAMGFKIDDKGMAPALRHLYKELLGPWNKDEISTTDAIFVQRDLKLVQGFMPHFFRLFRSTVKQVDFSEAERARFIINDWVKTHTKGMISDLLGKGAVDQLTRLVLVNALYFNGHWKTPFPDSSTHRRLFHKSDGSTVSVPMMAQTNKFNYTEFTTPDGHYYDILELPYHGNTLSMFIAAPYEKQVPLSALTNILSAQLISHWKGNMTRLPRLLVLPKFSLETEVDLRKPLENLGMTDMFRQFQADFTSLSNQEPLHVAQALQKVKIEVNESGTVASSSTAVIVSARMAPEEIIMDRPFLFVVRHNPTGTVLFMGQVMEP
T2 sequence (chain, as listed by the source limits assumed, chain 1 of 2): as the sequence (P05121 other isoform, or with tags, fused parts or gaps limits assumed) above
T2 sequence (P04004 20-478 limits assumed, chain 2 of 2): as the sequence (P04004 20-478 limits assumed, chain 2 of 2) above

- PAI-1 activity in human liver lysate (UK-PAI complex ELISA), IC50, A44-hv11 (1 nM) (human PAI-1 [1]): 0.0365 nM
- PAI-1 activity in human liver lysate (UK-PAI complex ELISA), IC50, A44-hv11 (2 nM) (human PAI-1 [1]): 0.0503 nM
- PAI-1 activity in human liver lysate (UK-PAI complex ELISA), IC50, A44-hv11 (3 nM) (human PAI-1 [1]): 0.0465 nM
- kon [2]: 1.56e+06 M⁻¹ s⁻¹
- human plasma clot lysis, IC50 [3]: 1.38 nM
- human plasma clot lysis, Imax @ 100 nM [3]: 113%
- Kd (cynomolgus PAI-1 [4]): 0.03 nM
- koff (cynomolgus PAI-1 [4]): 5.6e-05 s⁻¹
- kon (cynomolgus PAI-1 [4]): 1.87e+06 M⁻¹ s⁻¹
- Kd [5]: 0.0156 nM
- koff [5]: 0.000122 s⁻¹
- kon [5]: 7.66e+06 M⁻¹ s⁻¹
- active PAI-1 by uPA-PAI-1 complex ELISA, hPAI-1 Standard, IC50 (human PAI-1 [6]): 0.131 nM
- active PAI-1 by uPA-PAI-1 complex ELISA, hPAI-1 Standard, Y50% (human PAI-1 [6]): 50.8%
- active PAI-1 by uPA-PAI-1 complex ELISA, hPlasma TH1782, IC50 (human PAI-1 [6]): 0.0157 nM
- active PAI-1 by uPA-PAI-1 complex ELISA, hPlasma TH1782, Y50% (human PAI-1 [6]): 37.5%
- active PAI-1 by uPA-PAI-1 complex ELISA, Cyno PAI-1, IC50 (cynomolgus PAI-1 [7]): 0.0424 nM
- active PAI-1 by uPA-PAI-1 complex ELISA, Cyno PAI-1, Y50% (cynomolgus PAI-1 [7]): 50.8%
- human plasma clot lysis restoration, IC50 [8]: 2 nM
- Kd [9]: 0.387 nM
- Plasminogen Activation IC50 [10]: 2.01 nM
- Plasminogen Activation Y50% [10]: 85.8%
- Kd (human PAI-1 [11]): 0.0425 nM
- koff (human PAI-1 [11]): 6.68e-05 s⁻¹
- kon (human PAI-1 [11]): 1.57e+06 M⁻¹ s⁻¹
- koff [12]: 0.0006 s⁻¹
B1: A44-hv11 (antibody, V domains shown)
VH: QMTLKESGPTLVKPTQTLSLTCSVSGDSMTNGYWNWIRQFPGKALEYMGYITYSGSTYYNPSLKGRITITRDTSKNQYYLTLSSVTTVDTATYYCARWHYGSPYYFDYWGQGTTLTVSS
VL: DIKMTQSPSSLSASVGDRVTITCKASQDINSYLSWLQQKPGKSPKTLIYRAQRSVEGVPSRFSGSGSGQDYSLTISSLQPEDLGIYYCLQYDEFPPTFGGGTKLEIK
notes: humanized A44, HEK293; compared with a human IgG1 isotype control; constant regions as for A44-hv1; also called A44V11; A44v11

Source: patent publication US20160200831A1 (Sanofi, published 2016)
